Each block holds one molecule with its values, some of them ahead of it.
B1: Sam domain of the EphA2 receptor (domain or fragment, human, UniProt P29317 901-976, looked up)
chain: SEGVPFRTVSEWLESIKMQQYTEHFMAAGYTAIEKVVQMTNDDIKRIGVRLPGHQKRIAYSLLGLKDQVNTVGIPI
B2: Sam domain of Ship2 (Src homology 2 domain-containing phosphoinositide-5-phosphatase 2) (domain or fragment, human, UniProt O15357 1194-1258, looked up)
chain: SGLGEAGMSAWLRAIGLERYEEGLVHNGWDDLEFLSDITEEDLEEAGVQDPAHKRLLLDTLQLSK

Legend:
[1] = target: Sam domain of Ship2 (Src homology 2 domain-containing phosphoinositide-5-phosphatase 2) (human) (UniProt O15357); assay: AUC
[2] = target: Arap3-Sam Sam (Homo sapiens) (UniProt Q8WWN8); assay: ITC; conditions: cited from earlier work
[3] = target: B2; assay: ITC
[4] = target: T1, EphA2-Sam double mutant (H924N, R950A) (human, UniProt P29317 901-976, H924N | R950A); assay: ITC
T1 sequence (looked up): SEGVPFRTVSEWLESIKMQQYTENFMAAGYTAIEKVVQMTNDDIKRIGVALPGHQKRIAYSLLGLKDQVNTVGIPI

[5] = target: B1; assay: ITC
[6] = target: T2, Sam domain of the EphA2 receptor, polyHis-tag cut with thrombin (human, UniProt P29317 901-976); assay: ITC
T2 sequence (looked up): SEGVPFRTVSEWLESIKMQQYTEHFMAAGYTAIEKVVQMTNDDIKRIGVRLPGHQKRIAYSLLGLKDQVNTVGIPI

Chain of Arap3-Sam Sam (Homo sapiens) (Q8WWN8 1-71): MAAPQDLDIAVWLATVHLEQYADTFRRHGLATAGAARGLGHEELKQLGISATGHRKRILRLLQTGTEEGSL

Kd [1]: 2000 µM
Molecule: Sam domain of Ship2 (Src homology 2 domain-containing phosphoinositide-5-phosphatase 2) (from UniProt O15357 1194-1258) (domain or fragment)

Molecule: Ship2-Sam Sam (from UniProt O15357)
Kd [2]: 0.1 µM

Molecule: B1
stoichiometry N [3]: 1

Molecule: B2
Kd [4]: 1.8 ± 0.6 µM
Kd [5]: 0.75 ± 0.12 µM

Kd [6]: 19 ± 3 µM
Molecule: Ac-EGLVHNGWDDLEFLSDITEEDL-NH2 [Shiptide (minimal peptide region of Ship2-Sam)]
